{
  "source": "patent US20190233512A1",
  "about": "(SUTRO BIOPHARMA, published 2019)",
  "key": {"[1]": {"target": "T1, Human folate receptor alpha (hFOLR1) (human, UniProt P15328 25-234)", "T1 construct": "Stably expressed on CHO cells (CHO-hFOLR1) for flow cytometry; endogenous on FOLR1-positive KB and Igrov1 cells in the killing assay; also called human FOLR1; FolRα", "T1 sequence (P15328 25-234 limits assumed)": "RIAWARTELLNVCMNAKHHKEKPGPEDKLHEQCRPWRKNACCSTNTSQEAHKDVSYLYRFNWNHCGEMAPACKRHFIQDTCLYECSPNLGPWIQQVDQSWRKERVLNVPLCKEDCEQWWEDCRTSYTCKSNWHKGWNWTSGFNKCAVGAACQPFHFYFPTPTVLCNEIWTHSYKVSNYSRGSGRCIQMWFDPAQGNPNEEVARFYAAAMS", "test": "FACS, CHO-hFOLR1 cells", "method": "CHO cells were transfected to stably express human (CHO-hFOLR1), cynomolgus (CHO-cFOLR1), or mouse (CHO-mFOLR1) target molecule FOLR1 on the cell surface. Parental CHO cells were used as a negative control to determine background binding levels. Parental CHO and stably transfected CHO-hFOLR1, CHO-cFOLR1, and CHO-mFOLR1 cells were cultured in Ham's F-12: high glucose DMEM (50:50) (Corning, Cellgro-Mediatech) supplemented with 10% heat-inactivated fetal bovine serum (Corning, Cellgro-Mediatech), 1% Penicillin/Streptomycin (Corning, Cellgro-Mediatech) and 2 mmol/L-glutamax (Life Technology).\nA mixture of fluoresecent-labeled parental CHO cells and unlabeled CHO-hFOLRlcells were prepared as follows. Parental CHO cells were washed twice in PBS and incubated in PBS containing with 1 nM CellTrace™ Oregon Green488® (Life Technologies) at 37° C. for 30 minutes. Labeled parental CHO cells were then washed 2× with Ham's F-12 media and 2× with FACS buffer (PBS with 1% bovine serum albumin). Unlabeled CHO-hFOLR1 cells were similarly washed and prepared. Labeled parental CHO and unlabeled CHO-hFOLR1 cells were combined at 1:1 ratio and seeded at 50 μL per well (200,000 cells per well) in 96 well polypropylene plates. Cells were mixed with 50 μL of test antibodies (i.e., anti-FOLR1 variants) serially diluted in FACS buffer and incubated on ice for 60 mins. Cells were washed with FACS buffer and incubated on ice for 60 mins with 100 μL FACS buffer containing 2.5 μg/mL R-Phycoerythrin-conjugated goat anti-Human IgG (Jackson ImmunoResearch Laboratories, West Grove, Pa.). Cells were washed twice with FACS buffer, fixed in 2% paraformaldehyde in PBS (Santa Cruz Biotechnology; Dallas, Tex.) for 10 mins on ice in the dark, and analyzed using the BD LSR II Flow Cytometer (BD Biosciences; San Jose, Calif.). Data were analyzed using FlowJo® software (FlowJo, LLC; Ashland, Oreg.) to determine mean fluorescence intensities. Binding constants were calculated using the statistical software, GraphPad Prism (GraphPad Software; La Jolla, Calif.) using the nonlinear regression equation, one site-specific binding with Hill slope. Secondary antibody alone was used as a control, in addition to measuring non-specific antibody binding to CHO parental cells."}, "[2]": {"target": "T2, Cynomolgus folate receptor alpha (cynomolgus monkey, UniProt P15328 25-234 (human entry))", "T2 construct": "Stably expressed on CHO cells (CHO-cFOLR1); also called cynomolgus FOLR1; CHO-cFOLR1", "T2 sequence (P15328 other isoform, or with tags, fused parts or gaps limits assumed)": "as the sequence (P15328 25-234 limits assumed) above, with I2T, W4R, R37K, Q117R, A146P, H171Y counted along it", "test": "FACS, CHO-cFOLR1 cells"}, "[3]": {"target": "T3, Murine folate receptor alpha (mouse, UniProt P35846 25-232)", "T3 construct": "Stably expressed on CHO cells (CHO-mFOLR1); also called mouse FOLR1; CHO-mFOLR1", "T3 sequence (P35846 25-232 limits assumed)": "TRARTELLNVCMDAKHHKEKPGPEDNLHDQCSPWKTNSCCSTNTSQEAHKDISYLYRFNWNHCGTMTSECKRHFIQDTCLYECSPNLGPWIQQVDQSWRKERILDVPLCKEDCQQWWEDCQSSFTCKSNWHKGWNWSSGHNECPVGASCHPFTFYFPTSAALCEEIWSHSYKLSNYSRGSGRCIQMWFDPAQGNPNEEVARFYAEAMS", "test": "FACS, CHO-mFOLR1 cells"}},
  "data": [
    {"binder": "SRP1848-B07 (antibody, V domains shown, VH/VL only; Fc-bearing IgG format with trastuzumab LC, HIS/FLAG-tagged, cell-free expressed; constant regions not tied; also called Antibody 14) VH: EVQLVESGGGLVQPGGSLRLSCAASGFNISRFYIHWVRQAPGKGLEWVGGISPYDGFTDYADSVKGRFTISADTSKNTAYLQMNSLRAEDTAVYYCARGSWSWPAGYGYYQDYWGQGTLVTVSS VL: not shown", "values": [
      {"measurement": "Bmax", "setting": "[1]", "value": 25600, "unit": "MFI"},
      {"measurement": "Bmax", "setting": "[2]", "value": 25500, "unit": "MFI"}
    ]},
    {"binder": "SRP1848-B09 (antibody, V domains shown, VH/VL only; Fc-bearing IgG format with trastuzumab LC, HIS/FLAG-tagged, cell-free expressed; constant regions not tied; also called Antibody 15) VH: EVQLVESGGGLVQPGGSLRLSCAAGGFNITNYYIHWVRQAPGKGLEWVGGITPVDGYTDYADRVKGRFTISADTSKNTAYLQMNSLRAEDTAVYYCARGAWSWRSGYGYYMDYWGQGTLVTVSS VL: not shown", "values": [
      {"measurement": "Bmax", "setting": "[1]", "value": 25200, "unit": "MFI"},
      {"measurement": "Bmax", "setting": "[3]", "value": 1420, "unit": "MFI"},
      {"measurement": "Bmax", "setting": "[2]", "value": 25200, "unit": "MFI"}
    ]},
    {"binder": "SRP1848-B10 (antibody, V domains shown, VH/VL only; Fc-bearing IgG format with trastuzumab LC, HIS/FLAG-tagged, cell-free expressed; constant regions not tied; also called Antibody 16) VH: EVQLVESGGGLVQPGGSLRLSCAASGFNTTTKSIHWVRQAPGKGLEWVGEIYPRDGITDYADSVKGRFTISADTSKNTAYLQMNSLRAEDTAVYYCARGGWHWRSGYSYYLDYWGQGTLVTVSS VL: not shown", "values": [
      {"measurement": "Bmax", "setting": "[1]", "value": 28200, "unit": "MFI"},
      {"measurement": "Bmax", "setting": "[3]", "value": 2460, "unit": "MFI"},
      {"measurement": "Bmax", "setting": "[2]", "value": 21300, "unit": "MFI"}
    ]},
    {"binder": "SRP1848-B11 (antibody, V domains shown, VH/VL only; Fc-bearing IgG format with trastuzumab LC, HIS/FLAG-tagged, cell-free expressed; constant regions not tied; also called Antibody 17) VH: EVQLVESGGGLVQPGGSLRLSCAASGFNIGNNSIHWVRQAPGKGLEWVGDISPIDGFTDYADSVKGRFTISADTSKNTAYLQMNSLRAEDTAVYYCARGSWSWRAGYGYYLDYWGQGTLVTVSS VL: not shown", "values": [
      {"measurement": "Bmax", "setting": "[1]", "value": 28400, "unit": "MFI"},
      {"measurement": "Bmax", "setting": "[3]", "value": 1630, "unit": "MFI"},
      {"measurement": "Bmax", "setting": "[2]", "value": 22900, "unit": "MFI"}
    ]},
    {"binder": "SRP1848-C01 (antibody, V domains shown, VH/VL only; Fc-bearing IgG format with trastuzumab LC, HIS/FLAG-tagged, cell-free expressed; constant regions not tied; also called Antibody 18) VH: EVQLVESGGGLVQPGGSLRLSCAASGFNIGNSYIHWVRQAPGKGLEWVGGVTPNDGYTDYADSVKGRFTISADTSKNTTYLQMNSLRAEDTAVYYCARGSWFWRAGYGYYLDYWGQGALVTVSS VL: not shown", "values": [
      {"measurement": "Bmax", "setting": "[1]", "value": 28500, "unit": "MFI"},
      {"measurement": "Bmax", "setting": "[3]", "value": 1370, "unit": "MFI"},
      {"measurement": "Bmax", "setting": "[2]", "value": 25900, "unit": "MFI"}
    ]},
    {"binder": "SRP1848-D04 (antibody, V domains shown, VH/VL only; Fc-bearing IgG format with trastuzumab LC, HIS/FLAG-tagged, cell-free expressed; constant regions not tied; also called Antibody 26) VH: EVQLVESGGGLVQPGGSLRLSCAASGFNISHYSIHWVRQAPGKGLEWVGEIYPRDGITDYADSVKGRFTISADTSKNTAYLQMNSLSAEDTAVYYCARGYWFWRSGYGYYLDYWGQGTLVTVSS VL: not shown", "values": [
      {"measurement": "Bmax", "setting": "[1]", "value": 29300, "unit": "MFI"},
      {"measurement": "Bmax", "setting": "[2]", "value": 25700, "unit": "MFI"}
    ]},
    {"binder": "SRP1848-D07 (antibody, V domains shown, VH/VL only; Fc-bearing IgG format with trastuzumab LC, HIS/FLAG-tagged, cell-free expressed; constant regions not tied; also called Antibody 28) VH: EVQLVESGGGLVQPGGSLRLSCAASGFNISKYYIHWVRQAPGKGLEWVGGISPNDGYTDYADSVKGRFAISADTSKNTAYLQMNSLRAEDTAVYYCARGFWAWRSGYGYYLDYWGQGTLVTVSS VL: not shown", "values": [
      {"measurement": "Bmax", "setting": "[1]", "value": 25700, "unit": "MFI"},
      {"measurement": "Bmax", "setting": "[2]", "value": 24300, "unit": "MFI"}
    ]},
    {"binder": "SRP1848-D09 (antibody, V domains shown, VH/VL only; Fc-bearing IgG format with trastuzumab LC, HIS/FLAG-tagged, cell-free expressed; constant regions not tied; also called Antibody 29) VH: EVQLVESGGGLVQPGGSLRLSCAASGFNISNYYIHWVRQAPGKGLEWVGGISPNDGYTDYADSVKGRFTISADTSKNTAYLQMNSLRAEDTAVYYCARGSWSWRHGYGYYLDYWGQGTLVTVSS VL: not shown", "values": [
      {"measurement": "Bmax", "setting": "[1]", "value": 25000, "unit": "MFI"},
      {"measurement": "Bmax", "setting": "[2]", "value": 21300, "unit": "MFI"}
    ]},
    {"binder": "SRP1848-E01 (antibody, V domains shown, VH/VL only; Fc-bearing IgG format with trastuzumab LC, HIS/FLAG-tagged, cell-free expressed; constant regions not tied; also called Antibody 31) VH: EVQLVESGGGLVQPGGSLRLSCAASGFNITNKYIHWVRQAPGKGLEWVGGITPFDGFTDYADSVKGRFTISADTSKNTAYLQMNSLRAEDTAVYYCARGSWSWPAGYGYYQDYWGQGTLVTVSS VL: not shown", "values": [
      {"measurement": "Bmax", "setting": "[1]", "value": 26400, "unit": "MFI"},
      {"measurement": "Bmax", "setting": "[2]", "value": 22400, "unit": "MFI"}
    ]},
    {"binder": "SRP1848-E05 (antibody, V domains shown, VH/VL only; Fc-bearing IgG format with trastuzumab LC, HIS/FLAG-tagged, cell-free expressed; constant regions not tied; also called Antibody 34) VH: EVQLVESGGGLVQPGGSLRVSCAASGFNIGVYYIHWVRQAPGKGLEWVGGITPNDGYTDYADSVKGRFTISADTSKNTAYLQMNSLRAEDTAVYYCARGFWAWRSGYGYYLDYWGQGTLVTVSS VL: not shown", "values": [
      {"measurement": "Bmax", "setting": "[1]", "value": 27300, "unit": "MFI"},
      {"measurement": "Bmax", "setting": "[2]", "value": 28200, "unit": "MFI"}
    ]},
    {"binder": "SRP1848-F06 (antibody, V domains shown, VH/VL only; Fc-bearing IgG format with trastuzumab LC, HIS/FLAG-tagged, cell-free expressed; constant regions not tied; also called Antibody 41) VH: EVQLVESGGGLVQPGGSLRLSCAASGFNISLSYIHWVRQAPGKGLEWVGGISPIDGNTDYADSVKGRFTISADTSKNTAYLQMNSLRAEDTAVYYCARGFWAWRSGYGYYLDYWGQGTLVTVSS VL: not shown", "values": [
      {"measurement": "Bmax", "setting": "[1]", "value": 25600, "unit": "MFI"},
      {"measurement": "Bmax", "setting": "[2]", "value": 26500, "unit": "MFI"}
    ]},
    {"binder": "SRP1848-F08 (antibody, V domains shown, VH/VL only; Fc-bearing IgG format with trastuzumab LC, HIS/FLAG-tagged, cell-free expressed; constant regions not tied; also called Antibody 43) VH: EVQLVESGGGLVQPGGSLRLSCAAGGFNISNHSIHWVRQAPGKGVEWVGEIYPVDGITDYADSVKGRFTISADTSKNTAYLRMNSLRAEDTAVYYCARGSWYWQSGYSYYLDYWGQGTLVTVSS VL: not shown", "values": [
      {"measurement": "Bmax", "setting": "[1]", "value": 26500, "unit": "MFI"},
      {"measurement": "Bmax", "setting": "[2]", "value": 21000, "unit": "MFI"}
    ]}
  ]
}
